Holding throughout (assay): BLI; […]; 300 s association, 300 s dissociation; 10x kinetics buffer; […]; global fit, 1:1 model; […]
Assay [1] deals with SARS-CoV-2 XBB.1.5 RBD, biotinylated (SARS-CoV-2) (UniProt P0DTC2).
In assay [2] the target is SARS-CoV-2 Delta RBD, biotinylated (SARS-CoV-2) (UniProt P0DTC2).
Assay [3] addresses SARS-CoV-2 BA.5 RBD, biotinylated (SARS-CoV-2) (UniProt P0DTC2).
Assay [4] addresses SARS-CoV-2 BQ.1.1 RBD, biotinylated (SARS-CoV-2) (UniProt P0DTC2).
The target of assay [5] is SARS-CoV-2 BA.2.75.2 RBD, biotinylated (SARS-CoV-2) (UniProt P0DTC2).
In assay [6] the target is SARS-CoV-2 BA.2.12.1 RBD, biotinylated (SARS-CoV-2) (UniProt P0DTC2).
In assay [7] the target is SARS-CoV-2 Wuhan-Hu-1 RBD, biotinylated (SARS-CoV-2) (UniProt P0DTC2).
Assay [8] has as its target SARS-CoV-2 BA.2.86 RBD, biotinylated (SARS-CoV-2) (UniProt P0DTC2).

By Kd is commonly meant the equilibrium constant for the complex coming apart. Broadly, the koff is the first-order rate constant of dissociation. A word on the kon: it is a measure of how fast the partners come together. A higher kon goes with fast association. Consider “TRI2-2 homotrimeric miniprotein inhibitor (designed binder)”, for which the Kd stood at 0.658 nM in assay [1]; 0.00114 nM in assay [2]; 0.0306 nM in assay [3]; 0.21 nM in assay [4]; 0.542 nM in assay [5]; 0.851 nM in assay [6]. The dissociation constant Kd in assay [7] turned out to be 0.00121 nM; in assay [8], 0.388 nM. Further, the koff came out at 0.000105 s⁻¹ in assay [1]; 2.95e-07 s⁻¹ in assay [2]; 9.92e-06 s⁻¹ in assay [3]; 3.36e-05 s⁻¹ in assay [4]; 8.93e-05 s⁻¹ in assay [5]; 0.000117 s⁻¹ in assay [6]. For the same substance, the koff in assay [7] is 3.46e-07 s⁻¹; in assay [8], 0.000131 s⁻¹. Also, the kon in assay [1] was 160000 M⁻¹ s⁻¹; in assay [2], 259000 M⁻¹ s⁻¹; in assay [3] it was 325000 M⁻¹ s⁻¹; in assay [4] it was 160000 M⁻¹ s⁻¹; in assay [5] it was 165000 M⁻¹ s⁻¹; in assay [6], 137000 M⁻¹ s⁻¹. Further, the results for the kon in assay [7] and in assay [8] were 286000 M⁻¹ s⁻¹ and 339000 M⁻¹ s⁻¹, respectively.
